Four molecules from article PMC8809517, “Cofactor-independent RNA editing by a synthetic S-type PPR protein” can be followed below.

Assay in all cases: high-throughput RNA pulldown from lysate on Ni-NTA beads; HRP: 50 mM Tris pH 8, 150 mM NaCl, 1 mM beta-mercaptoethanol, 50 ug/ml BSA, 3 ug/ml yeast RNA, 0.5% heparin; ITC and FP: Tris pH 8, 200 mM KCl, 5% glycerol; MST: 50 mM Tris pH 8, 200 mM NaCl, 1 mM DTT, BSA, heparin, 0.05% Tween 20
What all share (conditions): tags: N-terminal His-eGFP

For data set [1], the target named is T1, GFP-9S library array, motif 4 ND N98T;D124T (synthetic construct, N98T;D124T).
T1 chain: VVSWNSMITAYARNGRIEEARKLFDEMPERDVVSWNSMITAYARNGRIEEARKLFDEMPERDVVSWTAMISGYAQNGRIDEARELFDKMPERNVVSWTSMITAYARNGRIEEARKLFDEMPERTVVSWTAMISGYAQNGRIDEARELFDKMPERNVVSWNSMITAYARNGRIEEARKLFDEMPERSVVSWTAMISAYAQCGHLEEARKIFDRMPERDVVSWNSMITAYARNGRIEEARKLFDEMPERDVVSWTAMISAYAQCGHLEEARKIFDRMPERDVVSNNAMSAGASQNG

Data set [2] addresses T2, GFP-9S library array, motif 4 ND N98C;D124V (synthetic construct, N98C;D124V).
T2 chain: T1 chain with T98C, T124V

Data set [3] concerns the target T3, GFP-9S library array, motif 4 ND D124F (synthetic construct, D124F).
T3 chain: T1 chain with T98N, T124F

Data set [4] has as its target T4, GFP-9S library array, motif 4 ND N98S;D124W (synthetic construct, N98S;D124W).
T4 chain: T1 chain with T98S, T124W

For data set [5], the target named is T5, GFP-9S library array, motif 4 ND N98W;D124Q (synthetic construct, N98W;D124Q).
T5 chain: T1 chain with T98W, T124Q

Positions count from the first letter of the chain named.

Usually Kd stands for the constant that tells how readily two partners part at equilibrium. Low readings indicate a tighter complex, high ones a looser complex. Take AUUAGACGUGA (ssRNA) [Cy5-rpoA-G]: the Kd in data set [1] (label: 5' Cy5) was found to be 81.4 nM; in data set [2] (label: 5' Cy5), 124 nM; in data set [3] (label: 5' Cy5) it was 140 nM; in data set [4] (label: 5' Cy5), 126 nM; in data set [5] (label: 5' Cy5), 94.4 nM.
As to AUUACACGUGA (ssRNA) [Cy5-rpoA], the Kd in data set [1] (label: 5' Cy5) stood at 83.1 nM; in data set [2] (label: 5' Cy5), 130 nM; in data set [3] (label: 5' Cy5) it was 109 nM; in data set [4] (label: 5' Cy5), 90.7 nM; in data set [5] (label: 5' Cy5) it was 101 nM.
Consider AUUAUACGUGA (ssRNA) [IR-rpoA-U], for which the Kd in data set [1] (label: 5' IRDye 800CW) worked out at 63.1 nM; in data set [2] (label: 5' IRDye 800CW) it was 167 nM; in data set [3] (label: 5' IRDye 800CW), 63.9 nM; in data set [4] (label: 5' IRDye 800CW) it was 156 nM; in data set [5] (label: 5' IRDye 800CW), 195 nM.
For the molecule AUUAAACGUGA (ssRNA) [IR-rpoA-A], the Kd in data set [1] (label: 5' IRDye 800CW) amounted to 18.3 nM; in data set [2] (label: 5' IRDye 800CW), 98.1 nM; in data set [3] (label: 5' IRDye 800CW), 202 nM; in data set [4] (label: 5' IRDye 800CW), 218 nM; in data set [5] (label: 5' IRDye 800CW) it was 224 nM.
